This note sets out measurements from the supplement of paper PMC9112550, “Optimization of the antimicrobial peptide Bac7 by deep mutational scanning” (BMC Biology, 2022).
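Note: peptides expressed intracellularly from a pBAD plasmid library in pooled LB shake-flask culture, induced with 0.3% L-arabinose, DNA abundance read by NGS, three biological replicates, DESeq2 with apeglm shrinkage.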

The subject of this data set is Escherichia coli TOP10. Kind of data set: shrunken log2 fold change of peptide-encoding DNA abundance (4.5 h post-induction vs induction); higher = less antimicrobial activity (less host growth inhibition). Particulars: time post-induction: 4.5 h; library: site-saturation at positions 5, 18, 19, 20.
In the case of RRIRIRPPRLPRPRPRPDRWPRP, the “shrunken log2 fold change” value amounted to 0.0549.
In the case of RRIRCRPPRLPRPRPRPKQWPRP it was -0.0437; in that of RRIRGRPPRLPRPRPRPLEPPRP, 0.231; in that of RRIRWRPPRLPRPRPRPHWFPRP, 0.0392.
Consider RRIRKRPPRLPRPRPRPLKVPRP, for which the “shrunken log2 fold change” value was 0.237.
Take RRIRFRPPRLPRPRPRPIVRPRP: the “shrunken log2 fold change” value was -0.0797.
Regarding RRIRHRPPRLPRPRPRPIGFPRP, the “shrunken log2 fold change” value was -0.0167.
On to RRIRFRPPRLPRPRPRPNQVPRP, for which the “shrunken log2 fold change” value is -1.05.
Take RRIRARPPRLPRPRPRPTWQPRP: the “shrunken log2 fold change” value came to 0.4.
Consider RRIRKRPPRLPRPRPRPTYRPRP, for which the “shrunken log2 fold change” value stood at 0.647.
As for RRIRVRPPRLPRPRPRPVNNPRP, the “shrunken log2 fold change” value was -0.39.
Consider RRIRMRPPRLPRPRPRPLLYPRP, for which the “shrunken log2 fold change” value stood at 0.0402.
Regarding RRIRWRPPRLPRPRPRPIDIPRP, the “shrunken log2 fold change” value is -0.535.
The value for RRIRPRPPRLPRPRPRPRTRPRP was 0.187; that for RRIRRRPPRLPRPRPRPLKGPRP was -0.0966; that for RRIRDRPPRLPRPRPRPGACPRP was 0.23.
Take RRIRKRPPRLPRPRPRPEFCPRP: the “shrunken log2 fold change” value came to 0.771.
As to RRIRWRPPRLPRPRPRPITNPRP, the “shrunken log2 fold change” value is -0.0654.
Regarding RRIRWRPPRLPRPRPRPCDEPRP, the “shrunken log2 fold change” value was -0.0781.
The value for RRIRDRPPRLPRPRPRPYQIPRP was -0.238; that for RRIRGRPPRLPRPRPRPTLRPRP was 0.793.
As to RRIRVRPPRLPRPRPRPKLSPRP, the “shrunken log2 fold change” value is -0.0136.
Take RRIRWRPPRLPRPRPRPMEKPRP: the “shrunken log2 fold change” value turned out to be 0.0685.
With RRIRQRPPRLPRPRPRPPMRPRP, the “shrunken log2 fold change” value amounted to 0.862.
In the case of RRIRYRPPRLPRPRPRPWKVPRP it was -0.498.
On to RRIRHRPPRLPRPRPRPCQKPRP, for which the “shrunken log2 fold change” value is -0.0102.
On to RRIRTRPPRLPRPRPRPAEKPRP, for which the “shrunken log2 fold change” value came out at 0.0882.
For RRIRQRPPRLPRPRPRPGWIPRP, the “shrunken log2 fold change” value turned out to be 0.179.
On to RRIRERPPRLPRPRPRPWKVPRP, for which the “shrunken log2 fold change” value was -0.0109.
As to RRIRHRPPRLPRPRPRPREHPRP, the “shrunken log2 fold change” value was -0.126.
As for RRIRWRPPRLPRPRPRPTVQPRP, the “shrunken log2 fold change” value came out at 0.116.
Turning to RRIRQRPPRLPRPRPRPDVDPRP, the “shrunken log2 fold change” value was -0.152.
Turning to RRIRNRPPRLPRPRPRPFMEPRP, the “shrunken log2 fold change” value is -0.167.
For RRIRERPPRLPRPRPRPEGRPRP, the “shrunken log2 fold change” value was found to be 0.583.
With RRIRMRPPRLPRPRPRPSTVPRP, the “shrunken log2 fold change” value was -0.0552.
In the case of RRIRLRPPRLPRPRPRPQNGPRP it was -0.146; in that of RRIRKRPPRLPRPRPRPYNGPRP, -0.00151.
Turning to RRIRHRPPRLPRPRPRPFWIPRP, the “shrunken log2 fold change” value is -0.364.
As for RRIRIRPPRLPRPRPRPNIQPRP, the “shrunken log2 fold change” value is -1.03.
In the case of RRIRQRPPRLPRPRPRPKLYPRP it was -0.0149; in that of RRIRRRPPRLPRPRPRPPLLPRP, 0.675.
The value for RRIRDRPPRLPRPRPRPTRDPRP was 0.734; that for RRIRSRPPRLPRPRPRPRKKPRP was 0.362; that for RRIRPRPPRLPRPRPRPQIDPRP was -0.0108.
In the case of RRIRPRPPRLPRPRPRPKLVPRP it was 0.0371.
With RRIRMRPPRLPRPRPRPHWRPRP, the “shrunken log2 fold change” value stood at 0.0569.
For the sequence RRIRRRPPRLPRPRPRPIEYPRP, the “shrunken log2 fold change” value is -0.124.
On to RRIRTRPPRLPRPRPRPYVEPRP, for which the “shrunken log2 fold change” value is -1.12.
RRIRRRPPRLPRPRPRPHTSPRP: the “shrunken log2 fold change” value was -0.0729.
RRIRGRPPRLPRPRPRPWKLPRP: the “shrunken log2 fold change” value stood at 0.0361.
On to RRIRHRPPRLPRPRPRPRAHPRP, for which the “shrunken log2 fold change” value amounted to 0.216.
RRIRDRPPRLPRPRPRPGKLPRP: the “shrunken log2 fold change” value is 0.0495.
For RRIRKRPPRLPRPRPRPFVVPRP, the “shrunken log2 fold change” value was -0.00719.
For the sequence RRIRVRPPRLPRPRPRPRRSPRP, the “shrunken log2 fold change” value stood at 0.349.
In the case of RRIRFRPPRLPRPRPRPEINPRP it was -0.00788; in that of RRIRLRPPRLPRPRPRPSYVPRP, -0.13; in that of RRIRHRPPRLPRPRPRPSACPRP, -0.0435.
In the case of RRIRYRPPRLPRPRPRPPMIPRP it was -1.39.
Regarding RRIRMRPPRLPRPRPRPRNKPRP, the “shrunken log2 fold change” value is 0.667.
As for RRIRDRPPRLPRPRPRPQWIPRP, the “shrunken log2 fold change” value is -0.222.
On to RRIRMRPPRLPRPRPRPFRTPRP, for which the “shrunken log2 fold change” value is -0.21.
RRIRVRPPRLPRPRPRPPFHPRP: the “shrunken log2 fold change” value stood at 0.0102.
In the case of RRIRLRPPRLPRPRPRPRYFPRP it was -0.319.
For the sequence RRIRFRPPRLPRPRPRPFTAPRP, the “shrunken log2 fold change” value is -0.662.
For RRIRPRPPRLPRPRPRPMTHPRP, the “shrunken log2 fold change” value is -0.268.
For the sequence RRIRQRPPRLPRPRPRPTSYPRP, the “shrunken log2 fold change” value was -0.154.
Turning to RRIRIRPPRLPRPRPRPREYPRP, the “shrunken log2 fold change” value is -0.565.
Take RRIRFRPPRLPRPRPRPIMCPRP: the “shrunken log2 fold change” value is -0.273.
As to RRIRNRPPRLPRPRPRPLVHPRP, the “shrunken log2 fold change” value was 0.0443.
For the sequence RRIRMRPPRLPRPRPRPLMAPRP, the “shrunken log2 fold change” value is 2.47.
As for RRIRHRPPRLPRPRPRPSEYPRP, the “shrunken log2 fold change” value is -0.787.
For RRIRRRPPRLPRPRPRPLHNPRP, the “shrunken log2 fold change” value is 0.188.
RRIRFRPPRLPRPRPRPQANPRP: the “shrunken log2 fold change” value is -0.0788.
Consider RRIRMRPPRLPRPRPRPSHQPRP, for which the “shrunken log2 fold change” value was -0.0291.
As for RRIRPRPPRLPRPRPRPWQGPRP, the “shrunken log2 fold change” value was -0.00211.
For RRIRWRPPRLPRPRPRPGPIPRP, the “shrunken log2 fold change” value was determined as 0.171.
With RRIRPRPPRLPRPRPRPQACPRP, the “shrunken log2 fold change” value is -0.0282.
On to RRIRDRPPRLPRPRPRPECHPRP, for which the “shrunken log2 fold change” value came to 0.479.
On to RRIRDRPPRLPRPRPRPRRDPRP, for which the “shrunken log2 fold change” value amounted to 0.492.
In the case of RRIRYRPPRLPRPRPRPTYQPRP it was -0.00459; in that of RRIRFRPPRLPRPRPRPLKAPRP, 0.693.
The value for RRIRQRPPRLPRPRPRPVWFPRP was 0.111.
Turning to RRIRIRPPRLPRPRPRPKWAPRP, the “shrunken log2 fold change” value was -0.105.
For RRIRQRPPRLPRPRPRPPFSPRP, the “shrunken log2 fold change” value is -0.0357.
As to RRIRERPPRLPRPRPRPGHCPRP, the “shrunken log2 fold change” value worked out at 0.0591.
The value for RRIRMRPPRLPRPRPRPLNMPRP was -0.0641.
For the sequence RRIRGRPPRLPRPRPRPPPVPRP, the “shrunken log2 fold change” value was 1.25.
The value for RRIRGRPPRLPRPRPRPIPEPRP was 0.462; that for RRIRRRPPRLPRPRPRPLQYPRP was 0.615.
The value for RRIRVRPPRLPRPRPRPWDYPRP was -0.0898; that for RRIRVRPPRLPRPRPRPMRHPRP was -0.00914.
In the case of RRIRKRPPRLPRPRPRPHREPRP it was -0.0175; in that of RRIRPRPPRLPRPRPRPNEAPRP, -0.151; in that of RRIRIRPPRLPRPRPRPCIYPRP, -0.0179.
On to RRIRMRPPRLPRPRPRPMFIPRP, for which the “shrunken log2 fold change” value was -0.403.
On to RRIRTRPPRLPRPRPRPTMNPRP, for which the “shrunken log2 fold change” value is -0.371.
RRIRSRPPRLPRPRPRPHTLPRP: the “shrunken log2 fold change” value is -0.116.
On to RRIRIRPPRLPRPRPRPCLWPRP, for which the “shrunken log2 fold change” value came to 0.0796.
As to RRIRSRPPRLPRPRPRPRRVPRP, the “shrunken log2 fold change” value worked out at 0.452.
In the case of RRIRVRPPRLPRPRPRPEPLPRP, the “shrunken log2 fold change” value was 0.204.
In the case of RRIRIRPPRLPRPRPRPTTIPRP it was -0.578; in that of RRIRWRPPRLPRPRPRPLAHPRP, 0.29; in that of RRIRRRPPRLPRPRPRPMPFPRP, -0.0201.
As to RRIRGRPPRLPRPRPRPKLIPRP, the “shrunken log2 fold change” value stood at 0.479.
For the sequence RRIRCRPPRLPRPRPRPYAPPRP, the “shrunken log2 fold change” value is -0.412.
Turning to RRIRDRPPRLPRPRPRPIDPPRP, the “shrunken log2 fold change” value was -0.107.
As for RRIRRRPPRLPRPRPRPWGEPRP, the “shrunken log2 fold change” value was found to be 2.96.
For the sequence RRIRNRPPRLPRPRPRPVPSPRP, the “shrunken log2 fold change” value was determined as 0.155.
With RRIRCRPPRLPRPRPRPVHDPRP, the “shrunken log2 fold change” value stood at 0.141.
As to RRIRVRPPRLPRPRPRPIEVPRP, the “shrunken log2 fold change” value is -0.141.
For the sequence RRIRNRPPRLPRPRPRPYTSPRP, the “shrunken log2 fold change” value is -0.325.
Turning to RRIRWRPPRLPRPRPRPFWDPRP, the “shrunken log2 fold change” value was found to be 0.00494.
Turning to RRIRQRPPRLPRPRPRPPQNPRP, the “shrunken log2 fold change” value was found to be 0.663.
As to RRIRMRPPRLPRPRPRPQYFPRP, the “shrunken log2 fold change” value was 0.00454.
In the case of RRIRFRPPRLPRPRPRPHVYPRP it was -0.0438.
The value for RRIRPRPPRLPRPRPRPNAWPRP was 0.356.
In the case of RRIRHRPPRLPRPRPRPYDAPRP it was -0.271; in that of RRIRPRPPRLPRPRPRPEQPPRP, 0.184.
RRIRFRPPRLPRPRPRPTYMPRP: the “shrunken log2 fold change” value is -0.0541.
On to RRIRDRPPRLPRPRPRPAGKPRP, for which the “shrunken log2 fold change” value was 0.0578.
Take RRIRLRPPRLPRPRPRPSMAPRP: the “shrunken log2 fold change” value is -0.0685.
For RRIRRRPPRLPRPRPRPDWPPRP, the “shrunken log2 fold change” value worked out at 0.556.
On to RRIRIRPPRLPRPRPRPCMCPRP, for which the “shrunken log2 fold change” value is -0.422.
As to RRIRWRPPRLPRPRPRPRSYPRP, the “shrunken log2 fold change” value was -0.0435.
In the case of RRIRFRPPRLPRPRPRPLSGPRP it was -0.233.
